The record followed here is patent US20210147507A1, “METHODS TO AUGMENT OR ALTER SIGNAL TRANSDUCTION” (Bellicum Pharmaceuticals, Inc., priority 2017, published 2021).

Positions count from the first letter of the chain named. Names and notes keep the numbering of the source.

The test system of the assay is chimeric Caspase-9 polypeptide. The assay can be described thus: Caspase-9 mutant classes and basal activity (Table 5). The format is cell-based. The conditions noted are these: Caspase-9 mutant class; for Basal Activity: basal (ligand-independent) signaling compared with unmodified chimeric Caspase-9; for IC50: ligand IC50 compared with unmodified chimeric Caspase-9. An excerpt:
Even though homo-dimerization of wild-type initiator Caspase-9 is energetically unfavorable, making them mostly monomers in solution [14-16], the low-level inherent basal activity of unprocessed Caspase-9 [15, 17] is enhanced in the presence of the Apaf-1-based “apoptosome”, its natural allosteric regulator [6]. Moreover, supra-physiological expression levels and/or co-localization could lead to proximity-driven dimerization, further enhancing basal activation. The modified cells of the present application may comprise nucleic acids coding for a chimeric Caspase-9 polypeptide having lower basal signaling activity. Polynucleotides comprising Caspase-9 mutants with lower basal signaling may be expressed in the modified cells used for cell therapy herein. In these examples, the modified cells may include a safety switch, comprising a polynucleotide encoding a lower basal signaling chimeric Caspase-9 polypeptide. In the event of an adverse event following administration of the modified cells comprising the chimeric signaling polypeptides or chimeric antigen receptors herein, Caspase-9 activity may be induced by administering the dimerizer to the patient, thus inducing apoptosis and clearance of some, or all of the modified cells. In some examples, the amount of dimerizer administered may be determined as an amount designed to remove the highest amount, at least 80% or 90% of the modified cells. In other examples, the amount of dimerizer administered may be determined as an amount designed to remove only a portion of the modified cells, in order to alleviate negative symptoms or conditions, while leaving a sufficient amount of therapeutic modified cells in the patient, in order to continue therapy. Methods for using chimeric Caspase-9 polypeptides to induce apoptosis are discussed in PCT Application Number PCT/US2011/037381 by Malcolm K. Brenner et al., titled Methods for Inducing Selective Apoptosis, filed May 20, 2011, and in U.S. patent application Ser. No. 13/112,739 by Malcolm K. Brenner et al., titled Methods for Inducing Selective Apoptosis, filed May 20, 2011, issued Jul. 28, 2015 as U.S. Pat. No. 9,089,520. Chimeric caspase polypeptides having modified basal activity are discussed in PCT Application Serial Number PCT/US2014/022004 by David Spencer et al., titled Modified Caspase Polypeptides and Uses Thereof, filed Mar. 7, 2014, published Oct. 9, 2014 as WO2014/164348, and in U.S. patent application Ser. No. 13/792,135 by David Spencer et al., titled Modified Caspase Polypeptides and Uses Thereof, filed Mar. 7, 2014; and in U.S. patent application Ser. No. 14/640,553 by Spencer et al., filed Mar. 6, 2015. Methods for inducing partial apoptosis of the therapeutic modified cells are discussed in PCT Application Number PCT/US14/040964 by Kevin Slawin et al., titled Methods for Inducing Partial Apoptosis Using Caspase Polypeptides, filed Jun. 4, 2014, published Dec. 11, 2014 as WO2014/197638, and in U.S. patent application Ser. No. 14/296,404 by Kevin Slawin et al., titled Methods for Inducing Partial Apoptosis Using Caspase Polypeptides, filed Jun. 4, 2014. These patent applications and publications are all incorporated by reference herein in their entireties.

Chain of chimeric Caspase-9 polypeptide (P62942 2-108 F37V limits assumed): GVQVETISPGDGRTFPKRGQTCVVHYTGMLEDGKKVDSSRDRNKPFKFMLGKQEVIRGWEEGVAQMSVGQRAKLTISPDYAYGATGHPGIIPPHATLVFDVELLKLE

B1: 316ATPF^319AVPI (SMAC/Diablo) (protein, UniProt P55211 1-416, looked up, variant T317V F319I)
chain: MDEADRRLLRRCRLRLVEELQVDQLWDALLSRELFRPHMIEDIQRAGSGSRRDQARQLIIDLETRGSQALPLFISCLEDTGQDMLASFLRTNRQAAKLSKPTLENLTPVVLRPEIRKPEVLRPETPRPVDIGSGGFGDVGALESLRGNADLAYILSMEPCGHCLIINNVNFCRESGLRTRTGSNIDCEKLRRRFSSLHFMVEVKGDLTAKKMVLALLELAQQDHGALDCCVVVILSHGCQASHLQFPGAVYGTDGCPVSVEKIVNIFNGTSCPSLGGKPKLFFIQACGGEQKDHGFEVASTSPEDESPGSNPEPDAVPIQEGLRTFDQLDAISSLPTPSDIFVSYSTFPGFVSWRDPKSGSWYVETLDDIFEQWAHSEDLQSLLLRVANAVSVKGIYKQMPGCFNFLRKKLFFKTS
On to B1, for which the “Basal Activity” value is “Similar” and the IC50 entry was “Similar”.

B2: S307A (protein)
chain: GFGDVGALESLRGNADLAYILSMEPCGHCLIINNVNFCRESGLRTRTGSNIDCEKLRRRFSSLHFMVEVKGDLTAKKMVLALLELARQDHGALDCCVVVILSHGCQASHLQFPGAVYGTDGCPVSVEKIVNIFNGTSCPSLGGKPKLFFIQACGGEQKDHGFEVASTSPEDEAPGSNPEPDATPFQEGLRTFDQLDAISSLPTPSDIFVSYSTFPGFVSWRDPKSGSWYVETLDDIFEQWAHSEDLQSLLLRVANAVSVKGIYKQMPGCFNFLRKKLFFKTSASRA
With B2, the “Basal Activity” value is given as “Decreased” and the IC50 entry is “much higher”.

B3: F319W (protein)
chain: B2 chain with A173S, F185W
As to B3, the “Basal Activity” value is recorded as “Decreased” and the IC50 result is “much higher”.

B4: C403A (protein)
chain: B2 chain with A173S, C269A
On to B4, for which the “Basal Activity” value is “Similar” and the IC50 entry is listed as “Similar”.

B5: D327G (protein)
chain: B2 chain with A173S, D193G
With B5, the “Basal Activity” value is “Increased”.

B6: D327R (protein)
chain: B2 chain with A173S, D193R
Take B6: the “Basal Activity” value is listed as “Increased”.

B7: Y153A (protein)
chain: B2 chain with Y19A, A173S
On to B7, for which the “Basal Activity” value is “Decreased” and the IC50 entry is “much higher”.

B8: F326K (protein)
chain: B2 chain with A173S, F192K
With B8, the “Basal Activity” value is on record as “Increased”.

B9: N405T (protein)
chain: B2 chain with A173S, N271T
On to B9, for which the “Basal Activity” value is listed as “Increased”.

B10: Q328R (protein)
chain: B2 chain with A173S, Q194R
B10: the “Basal Activity” value is on record as “Increased”.

B11: T317C (protein)
chain: B2 chain with A173S, T183C
Turning to B11, the “Basal Activity” value is recorded as “Similar” and the IC50 result is “Similar”.

B12: L329G (protein)
chain: B2 chain with A173S, L195G
Take B12: the “Basal Activity” value is listed as “Increased”.

B13: F319A (protein)
chain: B2 chain with A173S, F185A
For B13, the “Basal Activity” value is listed as “Similar” and the IC50 entry was “Similar”.

B14: F406T (protein)
chain: B2 chain with A173S, F272T
Regarding B14, the “Basal Activity” value is “Decreased” and the IC50 entry is listed as “much higher”.

B15: D330A-N405T (protein)
chain: B2 chain with A173S, D196A, N271T
On to B15, for which the “Basal Activity” value is given as “Increased”.

B16: C403T (protein)
chain: B2 chain with A173S, C269T
Turning to B16, the “Basal Activity” value is “Similar” and the IC50 entry is recorded as “Similar”.

B17: D315A (protein)
chain: B2 chain with A173S, D181A
On to B17, for which the “Basal Activity” value was “Decreased” and the IC50 result was “much higher”.

B18: N405A (protein)
chain: B2 chain with A173S, N271A
As for B18, the “Basal Activity” value is reported as “Similar” and the IC50 entry is reported as “Similar”.

B19: F404W (protein)
chain: B2 chain with A173S, F270W
For the molecule B19, the “Basal Activity” value is “Decreased” and the IC50 result was “much higher”.

B20: D327K (protein)
chain: B2 chain with A173S, D193K
In the case of B20, the “Basal Activity” value is on record as “Increased”.

B21: Q328K (protein)
chain: B2 chain with A173S, Q194K
B21: the “Basal Activity” value is reported as “Increased”.

B22: N405F (protein)
chain: B2 chain with A173S, N271F
With B22, the “Basal Activity” value is reported as “Decreased” and the IC50 result is “much higher”.

B23: C403S (protein)
chain: B2 chain with A173S, C269S
For the molecule B23, the “Basal Activity” value is “Similar” and the IC50 entry is recorded as “Similar”.

B24: A316G (protein)
chain: B2 chain with A173S, A182G
As to B24, the “Basal Activity” value is reported as “Decreased” and the IC50 entry is recorded as “much higher”.

B25: T317E (protein)
chain: B2 chain with A173S, T183E
Consider B25, for which the “Basal Activity” value was “Increased”.

B26: P318A (protein)
chain: B2 chain with A173S, P184A
As to B26, the “Basal Activity” value was “Similar” and the IC50 entry is on record as “Similar”.

B27: A331K (protein)
chain: B2 chain with A173S, A197K
In the case of B27, the “Basal Activity” value was “Increased”.

B28: L329K (protein)
chain: B2 chain with A173S, L195K
For B28, the “Basal Activity” value is on record as “Increased”.

B29: Y153F (protein)
chain: B2 chain with Y19F, A173S
For the molecule B29, the “Basal Activity” value is recorded as “Decreased” and the IC50 result was “much higher”.
